Experimental data as given in US20070224188A1.

Target: biotin-labeled soluble FcRn
Assay: FcRn ELISA pH 6.0

Substance | FcRn pH6.0 (% of wild type) | FcRn6.0 (% of wild type)
anti-CD20 IgG1 A339E (antibody) | 75 | –
anti-CD20 IgG1 E382A (antibody) | 103 | –
anti-CD20 IgG1 T256V (antibody) | 114 | –
anti-CD20 IgG1 R292F (antibody) | 64 | –
anti-CD20 IgG1 D376N (antibody) | 94 | –
anti-CD20 IgG1 G236F (antibody) | 88 | –
anti-CD20 IgG1 376V434H (antibody) | – | 382
anti-CD20 IgG1 E382S (antibody) | 151 | –
anti-CD20 IgG1 S440W (antibody) | 85 | –
anti-CD20 IgG1 A431H (antibody) | 151 | –
anti-CD20 IgG1 G341M (antibody) | 79 | –
anti-CD20 IgG1 N434G (antibody) | 358 | –
anti-CD20 IgG1 Q311G (antibody) | 58 | –
anti-CD20 IgG1 V379T (antibody) | 109 | –
anti-CD20 IgG1 D265Y (antibody) | 33 | –
anti-CD20 IgG1 I332F (antibody) | 108 | –
anti-CD20 IgG1 V379Q (antibody) | 85 | –
anti-CD20 IgG1 Y373A (antibody) | 33 | –
anti-CD20 IgG1 268D332E (antibody) | – | 92
anti-CD20 IgG1 P343L (antibody) | 125 | –
anti-CD20 IgG1 283R311I (antibody) | – | 531
anti-CD20 IgG1 E272L (antibody) | 129 | –
anti-CD20 IgG1 S440D (antibody) | 72 | –
anti-CD20 IgG1 H268E (antibody) | 126 | –

Substance | FcRn pH6.0 (% of wild type) | FcRn6.0 (% of wild type)
anti-CD20 IgG1 G385P (antibody) | 101 | –
anti-CD20 IgG1 P247T (antibody) | 75 | –
anti-CD20 IgG1 P247R (antibody) | 72 | –
anti-CD20 IgG1 T256N (antibody) | 229 | –
anti-CD20 IgG1 Q311S (antibody) | 97 | –
anti-CD20 IgG1 V279F (antibody) | 113 | –
anti-CD20 IgG1 P238Y (antibody) | 74 | –
anti-CD20 IgG1 V427N (antibody) | 192 | –
anti-CD20 IgG1 S304E (antibody) | 101 | –
anti-CD20 IgG1 Y373I (antibody) | 73 | –
anti-CD20 IgG1 T256G (antibody) | 162 | –
anti-CD20 IgG1 S254Q (antibody) | 9 | –
anti-CD20 IgG1 G385E (antibody) | 98 | –
anti-CD20 IgG1 S267H (antibody) | 86 | –
anti-CD20 IgG1 Y373S (antibody) | 74 | –
anti-CD20 IgG1 E318T (antibody) | 304 | –
anti-CD20 IgG1 T256W (antibody) | 14 | –
anti-CD20 IgG1 T256A (antibody) | 160 | –
anti-CD20 IgG1 I377K (antibody) | 167 | –
anti-CD20 IgG1 Y373R (antibody) | 107 | –
anti-CD20 IgG1 T256M (antibody) | 35 | –
anti-CD20 IgG1 T256H (antibody) | 26 | –
anti-CD20 IgG1 D270A (antibody) | 87 | –
anti-CD20 IgG1 286F311I (antibody) | – | 412

Substance | FcRn pH6.0 (% of wild type) | FcRn6.0 (% of wild type)
anti-CD20 IgG1 258D283R (antibody) | – | 411
anti-CD20 IgG1 I332G (antibody) | 94 | –
anti-CD20 IgG1 K439H (antibody) | 99 | –
anti-CD20 IgG1 Q386K (antibody) | 115 | –
anti-CD20 IgG1 S267I (antibody) | 83 | –
anti-CD20 IgG1 G341P (antibody) | 127 | –
anti-CD20 IgG1 T256Q (antibody) | 64 | –
anti-CD20 IgG1 P247D (antibody) | 54 | –
anti-CD20 IgG1 P238E (antibody) | 76 | –
anti-CD20 IgG1 Q311L (antibody) | 186 | –
anti-CD20 IgG1 A339K (antibody) | 83 | –
anti-CD20 IgG1 L235S (antibody) | 85 | –
anti-CD20 IgG1 N315L (antibody) | 103 | –
anti-CD20 IgG1 A339R (antibody) | 82 | –
anti-CD20 IgG1 I377G (antibody) | 76 | –
anti-CD20 IgG1 E283K (antibody) | 246 | –
anti-CD20 IgG1 Y436T (antibody) | 115 | –
anti-CD20 IgG1 E283T (antibody) | 143 | –
anti-CD20 IgG1 S440G (antibody) | 101 | –
anti-CD20 IgG1 I332V (antibody) | 115 | –
anti-CD20 IgG1 E272K (antibody) | 320 | –
anti-CD20 IgG1 E380N (antibody) | 142 | –

Results, then the substance that gave them:

FcRn pH6.0 (% of wild type) | FcRn6.0 (% of wild type) | Substance
200 | – | anti-CD20 IgG1 Q438L (antibody)
83 | – | anti-CD20 IgG1 A339L (antibody)
64 | – | anti-CD20 IgG1 L314Y (antibody)
87 | – | anti-CD20 IgG1 L235E (antibody)
92 | – | anti-CD20 IgG1 I332N (antibody)
132 | – | anti-CD20 IgG1 S440K (antibody)
102 | – | anti-CD20 IgG1 P343D (antibody)
105 | – | anti-CD20 IgG1 P343N (antibody)
191 | – | anti-CD20 IgG1 P343H (antibody)
85 | – | anti-CD20 IgG1 R292A (antibody)
0 | – | anti-CD20 IgG1 K248F (antibody)
121 | – | anti-CD20 IgG1 A330R (antibody)
80 | – | anti-CD20 IgG1 A339D (antibody)
102 | – | anti-CD20 IgG1 S267K (antibody)
64 | – | anti-CD20 IgG1 L251F (antibody)
69 | – | anti-CD20 IgG1 G341V (antibody)
127 | – | anti-CD20 IgG1 E293V (antibody)
– | 439 | anti-CD20 IgG1 272R283R (antibody)
33 | – | anti-CD20 IgG1 T256R (antibody)

FcRn pH6.0 (% of wild type) | FcRn6.0 (% of wild type) | Substance
265 | – | anti-CD20 IgG1 V279T (antibody)
35 | – | anti-CD20 IgG1 P247H (antibody)
216 | – | anti-CD20 IgG1 E318N (antibody)
0 | – | anti-CD20 IgG1 S254M (antibody)
3 | – | anti-CD20 IgG1 S254P (antibody)
75 | – | anti-CD20 IgG1 P247G (antibody)
9 | – | anti-CD20 IgG1 S254K (antibody)
85 | – | anti-CD20 IgG1 L235G (antibody)
82 | – | anti-CD20 IgG1 S440A (antibody)
38 | – | anti-CD20 IgG1 Q311D (antibody)
320 | – | anti-CD20 IgG1 E430Q (antibody)
100 | – | anti-CD20 IgG1 Y373H (antibody)
367 | – | anti-CD20 IgG1 V279D (antibody)
– | 342 | anti-CD20 IgG1 256P434H (antibody)
98 | – | anti-CD20 IgG1 I377P (antibody)
114 | – | anti-CD20 IgG1 E318V (antibody)
15 | – | anti-CD20 IgG1 D249L (antibody)
5 | – | anti-CD20 IgG1 L314W (antibody)
90 | – | anti-CD20 IgG1 P238A (antibody)

FcRn pH6.0 (% of wild type) | FcRn6.0 (% of wild type) | Substance
142 | – | anti-CD20 IgG1 E283Y (antibody)
93 | – | anti-CD20 IgG1 K326W (antibody)
66 | – | anti-CD20 IgG1 Y373L (antibody)
42 | – | anti-CD20 IgG1 L314F (antibody)
– | 475 | anti-CD20 IgG1 283R376V (antibody)
122 | – | anti-CD20 IgG1 D270K (antibody)
97 | – | anti-CD20 IgG1 P247A (antibody)
60 | – | anti-CD20 IgG1 S424M (antibody)
146 | – | anti-CD20 IgG1 A339N (antibody)
5 | – | anti-CD20 IgG1 T256F (antibody)
131 | – | anti-CD20 IgG1 Q311T (antibody)
256 | – | anti-CD20 IgG1 V279G (antibody)
50 | – | anti-CD20 IgG1 G341E (antibody)
447 | – | anti-CD20 IgG1 P257V (antibody)
55 | – | anti-CD20 IgG1 Y373Q (antibody)
835 | – | anti-CD20 IgG1 P257M (antibody)
14 | – | anti-CD20 IgG1 N315P (antibody)
492 | – | anti-CD20 IgG1 T307E (antibody)
126 | – | anti-CD20 IgG1 P343T (antibody)
